Data as given in the supplement of paper PMC9732359.
± gives the uncertainty stated by the source.

Assay: protein stability index of a GFP-peptide fusion (yeast GPS) (PSI 1-4); higher = more stable; sorted into four equal gates, so the index is relative within each strain
Method in brief: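 The protein stability index combines read frequencies across sorting gates, each weighted by its gate number and then summed. To obtain those frequencies, a pooled yeast library of GFP fusions to tiled 17-residue yeast protein peptides, on a plasmid also expressing Cherry, was grown to mid-log phase in leucine-free medium. The cells were sorted into four equal gates by GFP/Cherry ratio before plasmid amplification by PCR and Illumina sequencing.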

Sequence	protein stability index (pdr5∆)	protein stability index (ubr1∆)	protein stability index (doa10∆)	protein stability index (san1∆)
DVQVDAEEKREAVIDEK [ITC1]	2.32 ± 0.18	2.6 ± 0.13		
ISRERDLFTHLWNQWLK [SRP68]	3.06 ± 0.12	2.93 ± 0.11	3.04 ± 0.12	2.99 ± 0.055
DSRTTTGAYIANRVTDK [PRE3]	3.29 ± 0.11	3.08 ± 0.082	2.99 ± 0.13	2.89 ± 0.11
LSATGTRSAKKMVIAEL [YJR042W/NUP85]				2.97 ± 0.15
KNVLANSIWGSSLRKNA [ITC1]	1.89 ± 0.05	1.45 ± 0.042	1.49 ± 0.057	1.82 ± 0.13
AYAQVEIQPRANIQLDF [FAS2]	3.06 ± 0.066	3.16 ± 0.049	3.17 ± 0.061	3.08 ± 0.057
GSNQQSSTGGGLFGNKP [YGR119C/NUP57]	3.28 ± 0.084	3.28 ± 0.042	3.36 ± 0.093	3.23 ± 0.058
ILEDFRVIKDFKKLNSK [YMR153W/NUP53]	3.32 ± 0.12	3.29 ± 0.063	3.15 ± 0.11	3.58 ± 0.055
PLLRKVVDRESDIPKTT [PRE4]	2.46 ± 0.091	2.79 ± 0.067	2.54 ± 0.11	1.87 ± 0.13
NNHNDSNRLHPPDIHPN [GRR1]	2.82 ± 0.044	2.77 ± 0.035	2.76 ± 0.046	2.8 ± 0.039
TPDPSELAAKEEPAKEE [FAS2]	2.821 ± 0.024	2.684 ± 0.019	2.718 ± 0.024	2.693 ± 0.026
LRRASATVPSAPYRKQI [YAR002W/NUP60]	2.93 ± 0.11	2.64 ± 0.068	2.72 ± 0.095	2.07 ± 0.13
PFDNSTEEKCKNFIESE [YJL039C/NUP192]	3.39 ± 0.16	3.32 ± 0.1	3.27 ± 0.14	3.22 ± 0.096
SKAFKESSDFGAIILTK [SRP54]	1.57 ± 0.056	1.67 ± 0.06	2.12 ± 0.073	1.56 ± 0.17
NIPWDVPGMPAPIKKII [PRP8]	2.91 ± 0.19	3.05 ± 0.2	2.75 ± 0.3	2.8 ± 0.28
IVVQLNGRLNKCGVISP [RPS22A]	3.35 ± 0.14	3.49 ± 0.079	3.25 ± 0.19	2.98 ± 0.093
ALQNLSQLPITPMTRIS [YGL172W/NUP49]	1.95 ± 0.12	1.92 ± 0.065	2.31 ± 0.13	1.66 ± 0.21
KDLTLCRYSCLALERMV [YCS4]	2.36 ± 0.2	1.79 ± 0.13	2.58 ± 0.23	
GQHKNNTSLNINGWKFE [SWP82]	3.21 ± 0.074	2.99 ± 0.077	3.09 ± 0.075	3.05 ± 0.063
YQVDEDVKSSLSKVFSD [YJL039C/NUP192]	3.42 ± 0.14	2.93 ± 0.22	3.23 ± 0.17	3.33 ± 0.17
KVLRKFRVQSQSNYGIY [NUT1]	2.29 ± 0.071	2.3 ± 0.14	1.85 ± 0.053	1.34 ± 0.11
DQQSPWLLRLELDRAAM [RPO21]	1.83 ± 0.14	2.66 ± 0.1	1.49 ± 0.22	1.93 ± 0.13
MKRADKFKDMGIRAPKG [RPT5]	3.38 ± 0.16	3.3 ± 0.12	2.89 ± 0.1	2.98 ± 0.13
RSLASFEQTAFSRHAQQ [SIR4]	2.73 ± 0.045	2.77 ± 0.05	2.84 ± 0.059	2.82 ± 0.05
GTLGEIFIRCNNVLYIR [SMX3]	3.27 ± 0.1	3.26 ± 0.1	3.57 ± 0.21	2.9 ± 0.1
ELDRAAMNDKDLTMGQV [RPO21]	3.31 ± 0.14	3.12 ± 0.097	3.29 ± 0.17	2.8 ± 0.13
EIDTILSTLRMEADPSL [RPN9]	3.04 ± 0.21	2.67 ± 0.087	3.04 ± 0.24	2.56 ± 0.13
